Patent US20240117334A1, “FACTOR B PROTEASES” (Vertex Pharmaceuticals Incorporated, priority 2021, published 2024)

Biological target: Human Factor B (human) (UniProt P00751)
Assay: cell-based or functional assay

Human Factor B (human), sequence (P00751 26-764 limits assumed): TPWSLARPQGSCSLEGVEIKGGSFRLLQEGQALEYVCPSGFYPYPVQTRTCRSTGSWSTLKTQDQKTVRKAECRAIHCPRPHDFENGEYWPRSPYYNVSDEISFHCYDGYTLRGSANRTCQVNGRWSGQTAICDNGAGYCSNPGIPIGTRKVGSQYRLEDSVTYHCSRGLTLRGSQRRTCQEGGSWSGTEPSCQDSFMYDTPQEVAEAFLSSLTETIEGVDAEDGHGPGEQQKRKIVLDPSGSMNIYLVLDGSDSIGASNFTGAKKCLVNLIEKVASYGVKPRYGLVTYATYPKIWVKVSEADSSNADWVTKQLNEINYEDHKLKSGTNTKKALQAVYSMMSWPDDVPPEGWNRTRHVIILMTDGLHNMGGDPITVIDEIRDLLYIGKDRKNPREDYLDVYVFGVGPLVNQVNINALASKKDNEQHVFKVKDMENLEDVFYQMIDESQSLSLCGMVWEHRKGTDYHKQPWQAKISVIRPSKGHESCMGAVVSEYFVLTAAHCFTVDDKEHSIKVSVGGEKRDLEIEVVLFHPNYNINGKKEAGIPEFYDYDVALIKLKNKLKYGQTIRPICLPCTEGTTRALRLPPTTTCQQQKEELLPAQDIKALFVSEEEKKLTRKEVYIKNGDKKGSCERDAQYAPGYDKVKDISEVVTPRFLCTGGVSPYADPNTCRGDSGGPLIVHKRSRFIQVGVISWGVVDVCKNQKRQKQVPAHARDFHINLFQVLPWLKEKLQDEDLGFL

fB Cleavage EC50	fB Cleavage, 80% plasma EC50	Binder
0.564 µM	7.77 µM	chymase C22S/D175N/A226R (enzyme) IIGGTESKPHSRPYMAYLEIVTSNGPSKFCGGFLIRRNFVLTAAHCAGRSITVTLGAHNITEEEDTWQKLEVIKQFRHPKYNTSTLHHDIMLLKLKEKASLTLAVGTLPFPSQFNFVPPGRMCRVAGWGRTGVLKPGSDTLQEVKLRLMDPQACSHFRNFDHNLQLCVGNPRKTKSAFKGDSGGPLLCAGVAQGIVSYGRSDAKPPRVFTRISHYRPWINQILQAN
1.55 µM		chymase C22S/S189T/A226R/F228M (enzyme) IIGGTESKPHSRPYMAYLEIVTSNGPSKFCGGFLIRRNFVLTAAHCAGRSITVTLGAHNITEEEDTWQKLEVIKQFRHPKYNTSTLHHDIMLLKLKEKASLTLAVGTLPFPSQFNFVPPGRMCRVAGWGRTGVLKPGSDTLQEVKLRLMDPQACSHFRDFDHNLQLCVGNPRKTKTAFKGDSGGPLLCAGVAQGIVSYGRSDAKPPRVMTRISHYRPWINQILQAN
1.77 µM		chymase C22S/V138A/S189T/A226R/F228M (enzyme) IIGGTESKPHSRPYMAYLEIVTSNGPSKFCGGFLIRRNFVLTAAHCAGRSITVTLGAHNITEEEDTWQKLEVIKQFRHPKYNTSTLHHDIMLLKLKEKASLTLAVGTLPFPSQFNFVPPGRMCRAAGWGRTGVLKPGSDTLQEVKLRLMDPQACSHFRDFDHNLQLCVGNPRKTKTAFKGDSGGPLLCAGVAQGIVSYGRSDAKPPRVMTRISHYRPWINQILQAN
8.14 µM		chymase C22S/S189T/A190S/F191S/A220L/A226R (enzyme) IIGGTESKPHSRPYMAYLEIVTSNGPSKFCGGFLIRRNFVLTAAHCAGRSITVTLGAHNITEEEDTWQKLEVIKQFRHPKYNTSTLHHDIMLLKLKEKASLTLAVGTLPFPSQFNFVPPGRMCRVAGWGRTGVLKPGSDTLQEVKLRLMDPQACSHFRDFDHNLQLCVGNPRKTKTSSKGDSGGPLLCAGVAQGIVSYGRSDLKPPRVFTRISHYRPWINQILQAN
0.077 µM		chymase C22S/F41K/L99N/F173Y/D175N/S218L/A226R (enzyme) IIGGTESKPHSRPYMAYLEIVTSNGPSKKCGGFLIRRNFVLTAAHCAGRSITVTLGAHNITEEEDTWQKLEVIKQFRHPKYNTSTNHHDIMLLKLKEKASLTLAVGTLPFPSQFNFVPPGRMCRVAGWGRTGVLKPGSDTLQEVKLRLMDPQACSHYRNFDHNLQLCVGNPRKTKSAFKGDSGGPLLCAGVAQGIVSYGRLDAKPPRVFTRISHYRPWINQILQAN
11.8 µM		chymase C22S/K40M/F41V/L99N/G151R/F173S/S218E/A226R (enzyme) IIGGTESKPHSRPYMAYLEIVTSNGPSMVCGGFLIRRNFVLTAAHCAGRSITVTLGAHNITEEEDTWQKLEVIKQFRHPKYNTSTNHHDIMLLKLKEKASLTLAVGTLPFPSQFNFVPPGRMCRVAGWGRTGVLKPRSDTLQEVKLRLMDPQACSHSRDFDHNLQLCVGNPRKTKSAFKGDSGGPLLCAGVAQGIVSYGREDAKPPRVFTRISHYRPWINQILQAN
0.113 µM		chymase C22S/K40L/L99N/F173Y/D175N/S218L/A226R (enzyme) IIGGTESKPHSRPYMAYLEIVTSNGPSLFCGGFLIRRNFVLTAAHCAGRSITVTLGAHNITEEEDTWQKLEVIKQFRHPKYNTSTNHHDIMLLKLKEKASLTLAVGTLPFPSQFNFVPPGRMCRVAGWGRTGVLKPGSDTLQEVKLRLMDPQACSHYRNFDHNLQLCVGNPRKTKSAFKGDSGGPLLCAGVAQGIVSYGRLDAKPPRVFTRISHYRPWINQILQAN
5.56 µM		chymase C22S/A220S/A226R (enzyme) IIGGTESKPHSRPYMAYLEIVTSNGPSKFCGGFLIRRNFVLTAAHCAGRSITVTLGAHNITEEEDTWQKLEVIKQFRHPKYNTSTLHHDIMLLKLKEKASLTLAVGTLPFPSQFNFVPPGRMCRVAGWGRTGVLKPGSDTLQEVKLRLMDPQACSHFRDFDHNLQLCVGNPRKTKSAFKGDSGGPLLCAGVAQGIVSYGRSDSKPPRVFTRISHYRPWINQILQAN
6.71 µM		chymase C22S/V138T/A190S/V213A/A226R (enzyme) IIGGTESKPHSRPYMAYLEIVTSNGPSKFCGGFLIRRNFVLTAAHCAGRSITVTLGAHNITEEEDTWQKLEVIKQFRHPKYNTSTLHHDIMLLKLKEKASLTLAVGTLPFPSQFNFVPPGRMCRTAGWGRTGVLKPGSDTLQEVKLRLMDPQACSHFRDFDHNLQLCVGNPRKTKSSFKGDSGGPLLCAGVAQGIASYGRSDAKPPRVFTRISHYRPWINQILQAN
2.94 µM		chymase C22S/V138A/A226R (enzyme) IIGGTESKPHSRPYMAYLEIVTSNGPSKFCGGFLIRRNFVLTAAHCAGRSITVTLGAHNITEEEDTWQKLEVIKQFRHPKYNTSTLHHDIMLLKLKEKASLTLAVGTLPFPSQFNFVPPGRMCRAAGWGRTGVLKPGSDTLQEVKLRLMDPQACSHFRDFDHNLQLCVGNPRKTKSAFKGDSGGPLLCAGVAQGIVSYGRSDAKPPRVFTRISHYRPWINQILQAN
0.151 µM		chymase C22S/K40L/F41K/L99N/F173Y/D175N/A226R (enzyme) IIGGTESKPHSRPYMAYLEIVTSNGPSLKCGGFLIRRNFVLTAAHCAGRSITVTLGAHNITEEEDTWQKLEVIKQFRHPKYNTSTNHHDIMLLKLKEKASLTLAVGTLPFPSQFNFVPPGRMCRVAGWGRTGVLKPGSDTLQEVKLRLMDPQACSHYRNFDHNLQLCVGNPRKTKSAFKGDSGGPLLCAGVAQGIVSYGRSDAKPPRVFTRISHYRPWINQILQAN
4.42 µM		chymase C22S/V138A/S189T/A226R (enzyme) IIGGTESKPHSRPYMAYLEIVTSNGPSKFCGGFLIRRNFVLTAAHCAGRSITVTLGAHNITEEEDTWQKLEVIKQFRHPKYNTSTLHHDIMLLKLKEKASLTLAVGTLPFPSQFNFVPPGRMCRAAGWGRTGVLKPGSDTLQEVKLRLMDPQACSHFRDFDHNLQLCVGNPRKTKTAFKGDSGGPLLCAGVAQGIVSYGRSDAKPPRVFTRISHYRPWINQILQAN
3.81 µM		chymase C22S/V138A/G145D/S189T/A190S/A226R (enzyme) IIGGTESKPHSRPYMAYLEIVTSNGPSKFCGGFLIRRNFVLTAAHCAGRSITVTLGAHNITEEEDTWQKLEVIKQFRHPKYNTSTLHHDIMLLKLKEKASLTLAVGTLPFPSQFNFVPPGRMCRAAGWGRTDVLKPGSDTLQEVKLRLMDPQACSHFRDFDHNLQLCVGNPRKTKTSFKGDSGGPLLCAGVAQGIVSYGRSDAKPPRVFTRISHYRPWINQILQAN
2.98 µM		chymase C22S/V138S/S189T/A226R/F228M (enzyme) IIGGTESKPHSRPYMAYLEIVTSNGPSKFCGGFLIRRNFVLTAAHCAGRSITVTLGAHNITEEEDTWQKLEVIKQFRHPKYNTSTLHHDIMLLKLKEKASLTLAVGTLPFPSQFNFVPPGRMCRSAGWGRTGVLKPGSDTLQEVKLRLMDPQACSHFRDFDHNLQLCVGNPRKTKTAFKGDSGGPLLCAGVAQGIVSYGRSDAKPPRVMTRISHYRPWINQILQAN
8.2 µM		chymase C22S/K40M/F41I/L99H/G151R/F173S/S218L/A226R (enzyme) IIGGTESKPHSRPYMAYLEIVTSNGPSMICGGFLIRRNFVLTAAHCAGRSITVTLGAHNITEEEDTWQKLEVIKQFRHPKYNTSTHHHDIMLLKLKEKASLTLAVGTLPFPSQFNFVPPGRMCRVAGWGRTGVLKPRSDTLQEVKLRLMDPQACSHSRDFDHNLQLCVGNPRKTKSAFKGDSGGPLLCAGVAQGIVSYGRLDAKPPRVFTRISHYRPWINQILQAN
4.16 µM		chymase C22S/V138L/S189T/A190G/A226R (enzyme) IIGGTESKPHSRPYMAYLEIVTSNGPSKFCGGFLIRRNFVLTAAHCAGRSITVTLGAHNITEEEDTWQKLEVIKQFRHPKYNTSTLHHDIMLLKLKEKASLTLAVGTLPFPSQFNFVPPGRMCRLAGWGRTGVLKPGSDTLQEVKLRLMDPQACSHFRDFDHNLQLCVGNPRKTKTGFKGDSGGPLLCAGVAQGIVSYGRSDAKPPRVFTRISHYRPWINQILQAN
0.181 µM	7.21 µM	chymase C22S/K40M/F41R/L99H/F173Y/D175W/S218L/A226R (enzyme) IIGGTESKPHSRPYMAYLEIVTSNGPSMRCGGFLIRRNFVLTAAHCAGRSITVTLGAHNITEEEDTWQKLEVIKQFRHPKYNTSTHHHDIMLLKLKEKASLTLAVGTLPFPSQFNFVPPGRMCRVAGWGRTGVLKPGSDTLQEVKLRLMDPQACSHYRWFDHNLQLCVGNPRKTKSAFKGDSGGPLLCAGVAQGIVSYGRLDAKPPRVFTRISHYRPWINQILQAN
5.07 µM		chymase C22S/A226R/F228A (enzyme) IIGGTESKPHSRPYMAYLEIVTSNGPSKFCGGFLIRRNFVLTAAHCAGRSITVTLGAHNITEEEDTWQKLEVIKQFRHPKYNTSTLHHDIMLLKLKEKASLTLAVGTLPFPSQFNFVPPGRMCRVAGWGRTGVLKPGSDTLQEVKLRLMDPQACSHFRDFDHNLQLCVGNPRKTKSAFKGDSGGPLLCAGVAQGIVSYGRSDAKPPRVATRISHYRPWINQILQAN
12.4 µM		chymase C22S/P38Q/V138I/A226R/F228A (enzyme) IIGGTESKPHSRPYMAYLEIVTSNGQSKFCGGFLIRRNFVLTAAHCAGRSITVTLGAHNITEEEDTWQKLEVIKQFRHPKYNTSTLHHDIMLLKLKEKASLTLAVGTLPFPSQFNFVPPGRMCRIAGWGRTGVLKPGSDTLQEVKLRLMDPQACSHFRDFDHNLQLCVGNPRKTKSAFKGDSGGPLLCAGVAQGIVSYGRSDAKPPRVATRISHYRPWINQILQAN
0.295 µM		chymase C22S/K40L/F41K/L99N/D175N/S218L/A226R (enzyme) IIGGTESKPHSRPYMAYLEIVTSNGPSLKCGGFLIRRNFVLTAAHCAGRSITVTLGAHNITEEEDTWQKLEVIKQFRHPKYNTSTNHHDIMLLKLKEKASLTLAVGTLPFPSQFNFVPPGRMCRVAGWGRTGVLKPGSDTLQEVKLRLMDPQACSHFRNFDHNLQLCVGNPRKTKSAFKGDSGGPLLCAGVAQGIVSYGRLDAKPPRVFTRISHYRPWINQILQAN
0.23 µM	5.14 µM	chymase C22S/K40M/F41R/L99N/F173Y/D175S/S218L/A226R (enzyme) IIGGTESKPHSRPYMAYLEIVTSNGPSMRCGGFLIRRNFVLTAAHCAGRSITVTLGAHNITEEEDTWQKLEVIKQFRHPKYNTSTNHHDIMLLKLKEKASLTLAVGTLPFPSQFNFVPPGRMCRVAGWGRTGVLKPGSDTLQEVKLRLMDPQACSHYRSFDHNLQLCVGNPRKTKSAFKGDSGGPLLCAGVAQGIVSYGRLDAKPPRVFTRISHYRPWINQILQAN
0.077 µM		chymase C22S/K40L/F41K/F173Y/D175N/S218L/A226R (enzyme) IIGGTESKPHSRPYMAYLEIVTSNGPSLKCGGFLIRRNFVLTAAHCAGRSITVTLGAHNITEEEDTWQKLEVIKQFRHPKYNTSTLHHDIMLLKLKEKASLTLAVGTLPFPSQFNFVPPGRMCRVAGWGRTGVLKPGSDTLQEVKLRLMDPQACSHYRNFDHNLQLCVGNPRKTKSAFKGDSGGPLLCAGVAQGIVSYGRLDAKPPRVFTRISHYRPWINQILQAN
